According to patent US20140289906A1, “Compositions Having Dicamba Decarboxylase Activity and Methods of Use” (priority 2013, published 2014):

What was measured:
[1] = 14C assay: 14CO2 capture from [14C]-carboxyl-labeled dicamba with purified protein; format: biochemical
[2] = GC/MS detection of 2,5-dichloro anisole (2,5-DCA), toluene trapping or head-space; format: biochemical; details: purified protein, dicamba, toluene capturing
Experimental: Alternatively, dicamba decarboxylase activity can be monitored by measuring decarboxylation products other than CO2 using product detection methods. The decarboxylation product of dicamba, 2,5-dichloro anisole or 2,5-DCA (FIG. 1C), is a volatile compound with a flash point of 21° C. To capture this volatile compound for detection, 140 ul of toluene solution is added on top of 1 ml reaction mixture to form a trapping layer in a 1.5 ml eppendorf tube. […] The reaction is kept still at room temperature overnight before being vortex mixed and centrifuged at 14,000 rpm for 15 minutes. The top toluene phase is carefully removed using a micropipette and transferred into a 12×32 mm polypropylene vial (Vial 11 mm) from MicroLiter Analytical Supplies, Inc. (catalog number 11-5300-100). The vial is sealed with Crimp seal (11 mm with FEP/Nat Rubber) from MicroLiter Analytical Supplies, Inc. (catalog number 11-0020A) using a E-Z Crimper™ 11 mm from Wheaton Inc. 1 ul of the toluene mixture is taken from the sealed vials and injected in splitless mode into a GC/MS system for sample analysis (Agilent GC/MS system with a 6890A GC, a 5973N MSD and a CTC CombiPAL auto-sampler or with a 7890A GC, a 5975C MSD and an Agilent GC Sampler 80 auto-sampler). The GC parameters are: Agilent DB-5MS column (30 m length, 0.25 mm diameter, 0.25 um film) or equivalent; The GC inlet temperature, 250° C.; Carry gas, helium in constant flow mode (1.2 mL/min); The GC oven temperature program, initial temperature at 70° C. for 1 min, ramping to 200° C. at 15° C./min, and then ramping to 250° C. at 30° C./min. MS data acquisition is done in SIM (selected ion monitoring) mode, monitoring the positive ion at M/Z 176 for the molecular ion of […]. The solvent delay for MS acquisition is set at 4 min. Another method for detection of 2,5-DCA is a head-space GC/MS method. Briefly, reaction mixtures in 500 ul reaction volume are prepared in 1.5 ml 12×32 mm glass vials (Microliter Analytical Supplies, Cat#11-1200) for head space analysis. Glass vials are sealed with magnetic cap from MicroLiter Analytical Supplies, Inc. (catalog number 11-0030AT) using a E-Z Crimper™ 11 mm from Wheaton Industries Inc. The reaction is carried out at room temperature for various amount of time and stopped by heating at 95° C. for 5 min. The reaction vial is transferred to a agitator for incubation at 80° C. for 5 min at 500 rpm. With a syringe preheated at 80° C., 1000 uL of head space is injected with sample fill speed at 100 uL/sec. GC/MS parameters for headspace analysis are the same as for liquid sample analysis.

[3] = LC-MS/MS detection of 4-chloro-3-methoxy phenol; format: biochemical; details: purified protein, dicamba
Experimental: The decarboxylated and chloro hydrolyzed product, 4-chloro-3-methoxy phenol (FIG. 1D), is measured using a LC-MS/MS analytical procedure. […] 10 ul is removed from the reaction mixture and mixed with 90 ul pre-chilled methanol followed by centrifugation at 14,000 rpm for 15 min at 4° C. 10 ul of the supernatant is then transferred into 170 ul ddH2O to achieve 5% methanol solution for injection. 50 ul of the prepared sample is injected into a 4000 Q Trap LC-MS/MS system for sample analysis. LC-MS/MS parameters are: Mobile Phase A, 2 mM ammonium acetate in water; Mobile Phase B, 2 mM ammonium acetate in methanol; Column, Aquasil, 100×2.1 mm, 3 μm, C18 column; Flow Rate, 0.6 ml/min. The MS/MS fragment 157/142 which is common to 4-chloro-3-methoxy phenol, 2-chloro-5-methoxy phenol, and 3-chloro-5-methoxy phenol is monitored at a retention time of 2.88 min.

[4] = GC/MS detection of 2,5-dichloro phenol (2,5-DCP); kinetic determination; format: biochemical; details: purified protein, dicamba
Experimental: The decarboxylated and demethylated product of dicamba, 2,5-dichloro phenol or 2,5-DCP (FIG. 1E) is measured using a GC/MS analytical procedure with either liquid injection after liquid/liquid extraction using toluene as the extraction solvent or gas injection using head space method. The head space sample analysis is carried out on an Agilent GC/MS system with a 6890A GC, a 5973N MSD and a CTC CombiPAL auto-sampler or with a 7890A GC, a 5975C MSD and an Agilent GC Sampler 80 auto-sampler with Phenomenex ZB-MultiResidue-1 column (30 m length, 0.25 mm diameter, 0.25 um film) or equivalent. GC/MS parameters are: GC inlet temperature, 200° C.; Carry gas, helium in constant flow mode (1.2 mL/min); Oven temperature program, 70° C. for 1 min and then ramp to 275° C. at 40° C./min. […] The reaction vial is transferred to a agitator for incubation at 90° C. for 4 min at 500 rpm. With a syringe preheated at 110° C., 1000 uL of head space is injected with sample fill speed at 100 uL/sec. A 2-mm diameter liner is used in sample inlet. The MS data acquisition is done in SIM (selected ion monitoring) mode. The positive ion at M/Z 162 for the molecular ion of 2,-5-DCP is monitored at retention time of 4.06 min. Solvent delay for MS acquisition is set at 3 min. GC/MS parameters for liquid sample analysis are the same as those for head space analysis, except that the volume of liquid injection is 1 uL.

[5] = Dicamba decarboxylation activity of computationally designed protein variants and parents (Tables 4, 5); details: for dicamba decarboxylase activity (statement in the description): native proteins and designed variants, assay not specified
[6] = 14C assay: 14CO2 capture from [14C]-carboxyl-labeled dicamba with IPTG-induced recombinant E. coli cells; details: for Enzymatic Detection level: dicamba decarboxylation activity
[7] = Saturation mutagenesis of SEQ ID NO:109: dicamba decarboxylation activity of point mutants (Table 7)

Row | Molecule | CO2 product detected [1] | 2,5-DCA product detected [2] | 4-chloro-3-methoxy phenol product detected [3] | 2,5-DCP product detected [4] | dicamba decarboxylase activity (statement in the description) [5] | Percent Activity Improvement Over Parent (%) ([5]; parent (SEQ ID NO: 1 or SEQ ID NO: 41) = 100) | Dicamba Decarboxylase Activity ([6]; IPTG-induced recombinant E. coli cells, 14CO2 from [14C]-carboxyl-labeled dicamba) | decarboxylation activity of dicamba ([6]; among the 108 sequences tested, recombinant E. coli cell assay) | Enzymatic Detection level [6] | Average Activity (Fold of SEQ ID NO: 109) ([7]; dicamba decarboxylation activity of point mutants of SEQ ID NO: 109 from NNK saturation mutagenesis, 0.7-fold used as cut-off) | Average Activity (Fold of SEQ ID NO: 109) ([7]; point mutant of SEQ ID NO:109, dicamba decarboxylation activity relative to the unchanged template)
1 | 1 (protein, listed as Rhizobium sp.) MAQGKVALEEHFAIPETLQDSAGFVPGDYWKELQHRLLDIQDTRLKLMDAHGIETMILSLNAPAVQAIPDRRKAIEIARRANDVLAEECAKRPDRFLAFAALPLQDPDAATEELQRCVNDLGFVGALVNGFSQEGDGQTPLYYDLPQYRPFWGEVEKLDVPFYLHPRNPLPQDSRIYDGHPWLLGPTWAFAQETAVHALRLMASGLFDEHPRLNIILGHMGEGLPYMMWRIDHRNAWVKLPPRYPAKRRFMDYFNENFHITTSGNFRTQTLIDAILEIGADRILFSTDWPFENIDHASDWFNATSIAEADRVKIGRTNARRLFKLDGA | detected | detected | detected | detected | native dicamba decarboxylase activity | 100 | High | showed decarboxylation activity of dicamba | High |  | 
2 | 117 (protein, Dicamba decarboxylase variant clone DC.5.008) MAKKPRIDMHSHFFPRISEQEAAKFDANHAPWLQVSAKGDTGSIMMGKNNFRPVYQALWDPAFRIEEMDAQGVDVQVTCATPVMFGYTWEANKAAQWAERMNDFALEFAAHNPQRIKVLAQVPLQDLDLACKEASRAVAAGHLGIQIGNHLGDKDLDDATLEAFLTHCANEDIPILVHPWDMMGGQRMKKWMLPVLVAAPAEVQLAILSLILSGAFERIPKSLKICFAGGGGSFAFLLGIVDLAWRHRDIVREDCPRPPSEYVDRFFVDSLVFNPGALELLVSVMGEDRVMLGSDYPFPTGEQKIGGLVLSSNLGESAKDKIISGNASKFFNINV | not detected | detected | not detected | not detected | have dicamba decarboxylase activity |  |  |  | High |  | 
3 | 118 (protein, Dicamba decarboxylase variant clone DC.5.033) MAKKPRIDMHSHFFPRISEQEAAKFDANHAPWLQVSAKGDTGSIMMGKNNFQPVYQALWDPAFRIEEMDAQGVDVQVTCATPVMFGYTWEANKAAQWAERMNDFALEFAAHNPQRIKVLAQVPLQDLDLACKEASRAVAAGHLGIQIGNHLGDKDLDDATLEAFLTHCANEDIPILVHGTDMMGGQRMKKWGLPWLVALAAEVQLAILSLILSGAFERIPKSLKICFSHGGGSFAFLLGLVDEAWRHVDIVREDCPRPPSEYVDRFFVDSVGNPGALELLVSVMGEDRVMLGSDYPHTTGEQKIGGLVLSSNLGESAKDKIISGNASKFFNINV | not detected | detected | not detected | not detected | have dicamba decarboxylase activity |  |  |  | High |  | 
4 | 119 (protein, Dicamba decarboxylase variant cloneDC.5.034) MAKKPRIDMHSHFFPRISEQEAAKFDANHAPWLQVSAKGDTGSIMMGKNNFQPVYQALWDPAFRIEEMDAQGVDVQVTCATPVMFGYTWEANKAAQWAERMNDFALEFAAHNPQRIKVLAQVPLQDLDLACKEASRAVAAGHLGIQIGNHLGDKDLDDATLEAFLTHCANEDIPILVHGWDMMGGQRMKKWGLYWLVAHHAEVQLAILSLILSGAFERIPKSLKICFSHGGGSFAFTLGWVDEAWRHVDIVREDCPRPPSEYVDRFFVDSVGNPGALELLVSVMGEDRVMLGSDYPLTTGEQKIGGLVLSSNLGESAKDKIISGNASKFFNINV | not detected | detected | not detected | not detected | have dicamba decarboxylase activity |  |  |  | High |  | 
5 | 120 (protein, Dicamba decarboxylase variant clone DC.12.002) MAIIDCHGHYTTTPKGVETYRNAQKAAVAKDPSFKYEKGQVVVSDDEIRESIENNQLKMQRERGTDLTIFSPRSTAGGHHIGNEYTSQFWTEHQNDLIRRVCDLFPKNFAPVAQLPQSPGVDPAKSVPEIVRTVEQMGFIGINLNPDPSGGYWKDTSLADRAFYPIYEKMVEYDIPAMIHPRNACNDCFHTTGSHALGADTTGFQQLIMSDVFKDFPSLKIIIPHGGGAVPYHWGRFRGLMQDQGYAPLEESALKNIYFDTCVYHQRGIDLLLDIVPTQNILFASEMIGAVRGIDAETGHNFDDTKRYIDNNTALNAEEKAMIFEGNARRVFSRLKTD | not detected | detected | not detected | not detected | have dicamba decarboxylase activity |  |  |  | High |  | 
6 | G52E: point mutation of SEQ ID NO:109 (protein, Dicamba decarboxylase variant clone DC.4.032) MAQGKVALEEHFAIPETLQDSAGFVPGDYWKELQHRLLDIQDTRLKLMDAHEIETMILSLNAPAVQAIPDRRKAIEIARRANDVLAEECAKRPDRFLAFAALPLQDPDAATEELQRCVNDLGFVGALVNGFSQEGDGQTPLYYDLPQYRPFWGEVEKLDVPFYLHPRNPLPQDSRIYDGHPWLLGPTWAFAQETAVHALRLMASGLFDEHPRLNIILGHMGEGLPYMMWRIDHRVAWVKLPPRYPAKRRFMDYFNENFHITTSGNFRTQTLIDAILEIGADRILFSTDWPFENIDHASDWFNATSIAEADRVKIGRTNARRLFKLDGA |  |  |  |  |  |  |  |  |  | 3.1 Fold of SEQ ID NO: 109 | 3.1 Fold of SEQ ID NO: 109
